Kd data for four molecules are collected here from article PMC3891622, “The Sphingolipid Receptor S1PR2 Is a Receptor for Nogo-A Repressing Synaptic Plasticity” (PLoS Biology, 2014).

Assay [1] deals with T1, Fluorescently labeled recombinant Nogo-A-Δ20 (rat aa544-725) (rat), Q9JK11.
T1 chain: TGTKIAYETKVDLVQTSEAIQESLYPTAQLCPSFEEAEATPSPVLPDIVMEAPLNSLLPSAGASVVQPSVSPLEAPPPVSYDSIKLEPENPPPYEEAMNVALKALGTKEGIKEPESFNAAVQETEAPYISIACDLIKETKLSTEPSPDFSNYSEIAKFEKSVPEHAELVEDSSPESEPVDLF
Kind of assay: MST; Monolith NT.115; fluorescently labeled Nogo-A-Δ20 constant (~40 nM), peptides serially diluted; PBS with 0.025% Tween-20, pH 7.4; LED 60%, IR laser 20%; non-linear regression with Hill coefficient 1.0. Particulars: remark: other sources report otherwise.

Assay [2] concerns the target T2, Fluorescently labeled recombinant Nogo-A-Δ20 (rat aa544-725) (rat, UniProt Q9JK11-1 544-725, fluorescent label (Amine Reactive Protein labeling kit RED, L001, Nano Temper technologies)).
T2 construct: Nogo-A (Rtn4), rat, residues 544-725 (Nogo-A-Δ20 domain); not shown: T7 or HA (His-/T7- or His-/HA-tagged)
T2 sequence (looked up): T1 chain
Described as above. Particulars: both partners purified.

B1: S1PR2 extracellular loop 3 peptide (peptide)
peptide: SILLLDSTCPVRACPVLYK
modifications: here or on the partner: fluorescent label (Amine Reactive Protein labeling kit RED, L001, Nano Temper technologies)
Consider B1, for which the Kd in assay [1] stood at 350 nM.

B2: S1PR2 extracellular loop 1 peptide (peptide)
peptide: LSGHVTLSLTPVQW
notes: Extracellular loop 1 of S1PR2; also called ECL1; source: synthetic peptide (JPT Peptide Technologies)
With B2, in assay [2], the Kd is about 1700 nM.

B3: S1PR2 N-terminus peptide (peptide)
peptide: MGGLYSEYLNPEKVQEHYNYTKETLDMQETPSRK
notes: Extracellular N-terminus of S1PR2; source: synthetic peptide (JPT Peptide Technologies)
Regarding B3, the Kd in assay [2] is about 11000 nM.

B4: S1PR2 extracellular loop 2 peptide (peptide)
peptide: NCLNQLEACSTVLPLYAKHYVL
modifications: here or on the partner: fluorescent label (Amine Reactive Protein labeling kit RED, L001, Nano Temper technologies)
For the molecule B4, the Kd in assay [1] turned out to be 280 nM.
